These results are taken from doi:10.1101/2022.07.14.499993 (bioRxiv, 2022).

Experiment [1] concerns the target T1, IL-11 receptor α (amino acids 113-318), the receptor part of the IL-11/IL-11Rα fusion (UniProt Q14626 113-318).
T1 sequence (looked up): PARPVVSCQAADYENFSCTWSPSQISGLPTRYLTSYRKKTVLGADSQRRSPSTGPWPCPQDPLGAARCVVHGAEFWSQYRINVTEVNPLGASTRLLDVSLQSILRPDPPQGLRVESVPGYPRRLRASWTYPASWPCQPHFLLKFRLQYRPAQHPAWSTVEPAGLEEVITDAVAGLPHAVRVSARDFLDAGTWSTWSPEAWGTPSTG
In words: HDX-MS.

Experiment [2] has as its target T2, IL-11/IL-11Rα fusion (interleukin and receptor connected with a (GGGGS)3 linker) (UniProt Q14626 113-318; P20809 23-199).
T2 chain: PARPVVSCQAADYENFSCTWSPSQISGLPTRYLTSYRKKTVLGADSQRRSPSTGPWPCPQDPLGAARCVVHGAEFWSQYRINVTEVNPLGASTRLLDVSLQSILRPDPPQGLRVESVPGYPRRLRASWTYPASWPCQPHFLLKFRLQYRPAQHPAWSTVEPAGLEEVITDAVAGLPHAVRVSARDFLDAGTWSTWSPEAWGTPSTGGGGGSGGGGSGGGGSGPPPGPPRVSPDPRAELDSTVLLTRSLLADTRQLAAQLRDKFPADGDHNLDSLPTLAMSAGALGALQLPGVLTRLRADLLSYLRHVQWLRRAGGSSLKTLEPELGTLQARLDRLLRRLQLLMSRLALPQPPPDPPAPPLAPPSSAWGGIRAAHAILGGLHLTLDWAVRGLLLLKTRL
Briefly: ITC.

Experiment [3] addresses IL-6/IL-6Rα fusion (interleukin and receptor connected with a (GGGGS)3 linker) (UniProt P08887 114-320; P05231 30-212). Briefly: ITC. (In general: ITC needs no label: the signal is the heat of the interaction.)
Experiment [4] addresses T3, IL-11 receptor α, fusion protein with the Fc domain of human IgG1 (UniProt Q14626 24-370).
T3 sequence (looked up): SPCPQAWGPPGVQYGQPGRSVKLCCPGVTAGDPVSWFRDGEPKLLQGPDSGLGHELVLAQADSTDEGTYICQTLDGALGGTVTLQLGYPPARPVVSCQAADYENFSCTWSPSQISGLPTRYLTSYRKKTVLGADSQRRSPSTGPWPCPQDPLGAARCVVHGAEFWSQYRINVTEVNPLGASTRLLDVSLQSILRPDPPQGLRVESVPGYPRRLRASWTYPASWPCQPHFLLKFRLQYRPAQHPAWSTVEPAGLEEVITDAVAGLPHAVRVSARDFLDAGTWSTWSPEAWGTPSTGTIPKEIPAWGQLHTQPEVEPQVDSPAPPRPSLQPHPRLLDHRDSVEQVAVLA
In words: SPR.

B1: Interleukin-11 (amino acids 23-199), the interleukin part of the IL-11/IL-11Rα fusion (domain or fragment, UniProt P20809 23-199, looked up)
chain: GPPPGPPRVSPDPRAELDSTVLLTRSLLADTRQLAAQLRDKFPADGDHNLDSLPTLAMSAGALGALQLPGVLTRLRADLLSYLRHVQWLRRAGGSSLKTLEPELGTLQARLDRLLRRLQLLMSRLALPQPPPDPPAPPLAPPSSAWGGIRAAHAILGGLHLTLDWAVRGLLLLKTRL
For B1, in experiment [1], the binding result is reported as “binds”.

B2: human glycoprotein 130 (amino acids 24-618) (receptor, UniProt P40189 24-618, looked up)
chain: LLDPCGYISPESPVVQLHSNFTAVCVLKEKCMDYFHVNANYIVWKTNHFTIPKEQYTIINRTASSVTFTDIASLNIQLTCNILTFGQLEQNVYGITIISGLPPEKPKNLSCIVNEGKKMRCEWDGGRETHLETNFTLKSEWATHKFADCKAKRDTPTSCTVDYSTVYFVNIEVWVEAENALGKVTSDHINFDPVYKVKPNPPHNLSVINSEELSSILKLTWTNPSIKSVIILKYNIQYRTKDASTWSQIPPEDTASTRSSFTVQDLKPFTEYVFRIRCMKEDGKGYWSDWSEEASGITYEDRPSKAPSFWYKIDPSHTQGYRTVQLVWKTLPPFEANGKILDYEVTLTRWKSHLQNYTVNATKLTVNLTNDRYLATLTVRNLVGKSDAAVLTIPACDFQATHPVMDLKAFPKDNMLWVEWTTPRESVKKYILEWCVLSDKAPCITDWQQEDGTVHRTYLRGNLAESKCYLITVTPVYADGPGSPESIKAYLKQAPPSKGPTVRTKKVGKNEAVLEWDQLPVDVQNGFIRNYTIFYRTIIGNETAVNVDSSHTEYTLSSLTSDTLYMVRMAAYTDEGGKDGPEFTFTTPKFAQGEI
Regarding B2, the results for the dH in experiment [2] and in experiment [3] were -51 ± 1 kJ/mol and -28 ± 1 kJ/mol, respectively.

B3: Interleukin-11 (ligand, UniProt P20809 22-199, looked up)
chain: PGPPPGPPRVSPDPRAELDSTVLLTRSLLADTRQLAAQLRDKFPADGDHNLDSLPTLAMSAGALGALQLPGVLTRLRADLLSYLRHVQWLRRAGGSSLKTLEPELGTLQARLDRLLRRLQLLMSRLALPQPPPDPPAPPLAPPSSAWGGIRAAHAILGGLHLTLDWAVRGLLLLKTRL
B3 had a dH in experiment [4] of 47 ± 3 kJ/mol.
